Data set [1] concerns the molecule itself. Briefly: SAXS Guinier Rg, model with 1x N-glycosylation.
Data set [2] deals with the molecule itself. Briefly: SAXS; concentration series 0.27-9.15 mg/mL, 3 to 5% glycerol added; KD by nonlinear regression of experimental Rg^2 versus concentration (Equation 4) with theoretical Rg of monomer and dimer for zero to two N-glycosylations; dimer to monomers.
Data set [3] deals with the molecule itself. Put plainly: static light scattering; DynaPro NanoStar, 20 °C, quartz cuvette, several protein concentrations; molecular mass increased with protein concentration; no significant change of hydrodynamic radii and molecular mass in the presence of Ca2+; monomer to dimer.

B1: PTX-like domain of the human ADGRG4 (residues 1-240) (domain or fragment, UniProt Q8IZF6-1 28-240, looked up)
chain: LKGKKLDFFGRGDTYVSLIDTIPELSRFTACIDLVFMDDNSRYWMAFSYITNNALLGREDIDLGLAGDHQQLILYRLGKTFSIRHHLASFQWHTICLIWDGVKGKLELFLNKERILEVTDQPHNLTPHGTLFLGHFLKNESSEVKSMMRSFPGSLYYFQLWDHILENEEFMKCLDGNIVSWEEDVWLVNKIIPTVDRTLRCFVPENMTIQEKS
modifications: N-glycosylated (heterogeneous; putative N-glycosylation sites N166 and N233)
notes: signal peptide in the construct: human ADGRG4 (GPR112) residues 1-240, UniProt Q8IZF6-1; residues 1 to 25 are a signal peptide and are not present in the secreted protein; residues 26-162 and 176-231 are resolved in the crystal structure; Expected monomer mass printed as 30.5 kDa; also called G4-PTX; ADGRG4-PTX
What is called Kd is the constant that tells how readily two partners part at equilibrium. The stoichiometry N is the number of molecules, sites or subunits per partner or assembly. Turning to B1, the figures for the Kd in data set [1] and in data set [2] were 20 µM and 7 to 32 µM, respectively. Moreover, in data set [3], the “stoichiometry N” value came to 2.

(Values after publication PMC10687090, “The dimerized pentraxin-like domain of the adhesion G protein–coupled receptor 112 (ADGRG4) suggests function in sensing mechanical forces” (The Journal of Biological Chemistry, 2023).)
